Data on 21 molecules can be found in patent US20100092460A1 (Ablynx, published 2010).

For test [1], the target named is T1, recombinant human CCL2/MCP1 (human, UniProt P13500 24-99, 125I label in the radioligand assays).
T1 construct: Immunogen and selection antigen was the Mucin stalk Chimera (R&D 979-MC/CF)
Nature of the test: inhibition of 125I-CCL2 (59 pM) binding to HA3-CCR2 on HEK293T cells; radioligand preincubated with purified Nanobody.

Test [2] concerns the target T2, recombinant human CXCL11/I-TAC (human, UniProt O14625 22-94, biotinylated in the ELISA; 125I label in the radioligand assays).
T2 sequence (looked up): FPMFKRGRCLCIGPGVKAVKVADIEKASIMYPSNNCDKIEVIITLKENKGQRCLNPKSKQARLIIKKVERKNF
Nature of the test: ELISA, Nanobody captured by coated anti-myc antibody, biotinylated CXCL11, streptavidin-HRP.

The target of test [3] is T2, recombinant human CXCL11/I-TAC. As to the kind of experiment: inhibition of 125I-CXCL11 binding to hCXCR3 (HEK293T cells), 10x diluted periplasm; ELISA grade at the label.
Test [4] concerns the target T1, recombinant human CCL2/MCP1. Nature of the test: inhibition of 125I-CCL2 binding to HCMV-US28 (HEK293T cells), 10x diluted periplasm; ELISA grade at the label.
Test [5] has as its target T2, recombinant human CXCL11/I-TAC. As to the kind of experiment: cell-based or functional assay.
Test [6] shares this target. As to the kind of experiment: inhibition of 125I-CXCL11 (46 pM) binding to hCXCR3 on HEK293T cells; radioligand preincubated with purified Nanobody.
In test [7] the target is T3, CCL5 (UniProt P13501 24-91, 125I label).
T3 construct: also called RANTES
T3 sequence (looked up): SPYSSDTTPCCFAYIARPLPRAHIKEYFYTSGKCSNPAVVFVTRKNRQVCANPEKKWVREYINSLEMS
As to the kind of experiment: inhibition of 125I-CCL5 (56 pM) binding to CCR1 on HEK293T cells; radioligand preincubated with purified Nanobody.

Test [8] deals with T1, recombinant human CCL2/MCP1. As to the kind of experiment: inhibition of 125I-CCL2 binding to hCCR2 (HEK293T cells), purified Nanobody.
Test [9] deals with T2, recombinant human CXCL11/I-TAC. As to the kind of experiment: inhibition of 125I-CXCL11 binding to hCXCR3 (HEK293T cells), 10x diluted periplasm; ELISA grade at the label. This is another data set of the same source.
Test [10] has as its target T4, recombinant human CCL5/RANTES (Mucin stalk Chimera) (human, UniProt P13501 24-91, biotinylated in the ELISA).
T4 construct: also called mucin-CCL5; not shown: mucin stalk of the chimera (R&D 978-RN/CF); origin, limits and order not described
T4 sequence (looked up): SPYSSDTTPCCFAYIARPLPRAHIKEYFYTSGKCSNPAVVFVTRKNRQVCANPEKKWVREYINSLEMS
Nature of the test: ELISA, periplasmic extract on biotinylated mucin-CCL5 on neutravidin, anti-myc detection.

The target in test [11] is T3, CCL5. Nature of the test: inhibition of 125I-CCL5 binding to hCCR1 (HEK293T cells), purified Nanobody.

T1 sequence (P13500 24-99 limits assumed): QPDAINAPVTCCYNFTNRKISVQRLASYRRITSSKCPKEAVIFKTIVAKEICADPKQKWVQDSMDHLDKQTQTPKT

B1: Nanobody 8E3 (VHH)
VHH: EVQLVESGGGLVQAGGSLRLSCAASGGTFSSYRMGWFRQAPGKEREFVTLISRSGGTTDYTDSVKGRFTISRDNAKNTVSLQMNNLKPADTAVYYCAAAGSMGWNHLRDYDYWGQGTQVTVSS
notes: llama VHH against CCL2; purified; not shown: C-terminal c-myc tag and (His)6 tag coded by the vector
For B1, the pIC50 in [1] came out at 9.

B2: Nanobody 38E6 (VHH)
VHH: EVQLVESGGGLAQPGGSLRLSCAASGFTFSSYAMSWVRQAPGKGLEWVSAINSGGGSTSYADSVKGRFTISRDNAKNTLYLQMNSLKPEDTAVYYCQRGDYEFEPLEYDYWGQGTQVTVSS
notes: llama VHH against CXCL11; not shown: C-terminal c-myc tag and (His)6 tag coded by the vector
Turning to B2, in [2], the binding result was “binds”.

B3: Nanobody 11F10 (VHH)
VHH: EVQLVESGGGLVQAGGSLRLSCAASGFTLDDYAIGWFRQAPGKEREGVSCISSSDGSTYYADSVKGRFTISSDNAKNTVYLQMNSLKPEDTAVYYCAAGQGVLRLWVLSSSSYDYWGQGTQVTVSS
notes: as for B2
Consider B3, for which the binding result in [3] is listed as “binds”.

B4: Nanobody 38G6 (VHH)
VHH: EVQLVESGGGLVQAGGSLRLSCEASGFTFDDYAIGWFRQAPGKEREGVSCCSSSDGSTYYADSVKGRFTISSDNAKNTVYLQMNSLKPEDTAVYYCAATQGLLIATMWNPASYDYWGQGTQVTVSS
notes: as for B2
Consider B4, for which, in [2], the binding result is given as “binds”.

B5: Nanobody 38C6 (VHH)
VHH: EVQLVESGGGLVQAGGSLRLSCAASGFTFDDYAIGWFRQAPGKEREGVSCCSSSDGSTYYADSVKGRFTISSDNAKNTVYLQMNSLKPEDTAVYYCAATQGLTIATMWNPVSYDYWGQGTQVTVSS
notes: as for B2
Regarding B5, the binding result in [2] is “binds”.

B6: Nanobody 15A8 (VHH)
VHH: EVQLVESGGGLVQAGGSLRLSCAASGFTFDDYAIGWFRQAPGKEREGPLCISSSDGSTYYADSVKGRFTISSDNAKNTVYLQMNSLKPEDTAVYYCAAESLGDYGLASPLPADFGSWGQGTQVTVSS
notes: llama VHH against CCL2; not shown: C-terminal c-myc tag and (His)6 tag coded by the vector
As to B6, the binding result in [4] is “binds”.

B7: Nanobody 11B2 (VHH)
VHH: EVQLVESGGGLVQAGGSLRLSCAASGFTFDDYAMCWFRQAPGKEREGVSCISSSDGSTYYADSVKGRFTISSDNAKNTVYLHMNSLKPEDTAVYYCAAAQGVVAGASLVWVPLDEYDYWGQGTQVTVSS
notes: llama VHH against CXCL11; purified; not shown: C-terminal c-myc tag and (His)6 tag coded by the vector
For B7, the “inhibition of CXCL11-induced PLC activation (3H-inositol phosphate accumulation, HEK293T cells with CXCR3 and G-alpha-qi5), pIC50” value (from here on “inhibition”) in test [5] is 7.6. The pIC50 in test [6] is 9.1.

B8: Nanobody 10C8 (VHH)
VHH: EVQLVESGGGLVQAGDSLRLSCATSGRTFTMDGMGWFRQAPGKEREFVATISRSGVGTFYADSVKGRFTISRDNAKNMVYLQMNSLKPEDTALYYCAARPDYTLGTSSYDYDSWGQGTQVTVSS
notes: llama VHH against CCL5; purified; also called 10D8; 10E9; not shown: C-terminal c-myc tag and (His)6 tag coded by the vector
Regarding B8, the pIC50 with CCL5 [7] worked out at 9.3.

B9: Nanobody 8A3 (VHH)
VHH: EVQLVESGGGLVQAGGSLRLSCVASGLTFSTYSMGWFRQAPGKEREFVAAINGGGSSTTYADSVKGRFTISRDNAKNTVYLQMNSLKPEDTAVYSCAVKMYSGSYSSPPGYNYWGQGTQVTVSS
notes: as for B6
Consider B9, for which the binding result in test [8] is on record as “binds”.

B10: Nanobody 8E10 (VHH)
VHH: EVQLVESGGGLVQAGDSLRLSCAASGRTFSSYRMGWFRQAPGKEREFVAAISRSGASAYYADSVKGRFTCSRDNAKDTVYLQMNKLKPEDTAVYYCAASSRMGVDDPETYGYWGQGTQVTVSS
notes: as for B1
Consider B10, for which the pIC50 in [1] came to 8.7.

B11: Nanobody 11A7 (VHH)
VHH: EVQLVESGGGLVQAGGSLRLSCAASGFTFDDYAIGWFRQAPGKEREGVSIISSSDGSTYYADSVKGRFTISSDNAKNTVYLQMNSLKPEDTAVYYCAAGQGWVIATMTSFRAHREYDYWGQGTQVTVSS
notes: llama VHH against CXCL11; also called 11E10; 11E11; not shown: C-terminal c-myc tag and (His)6 tag coded by the vector
For B11, the binding result in test [9] is on record as “binds”.

B12: Nanobody 11E7 (VHH)
VHH: EVQLVESGGGLVQAGGSLRLSCAASGFTFDDYAIGWFRQAPGKEREGVSIISSSDGTTYYADSVKGRFTISTDNAKNTVYLQMNSLKPEDTAVYYCAAGQGWVIATMTSFRAHREYDYWGQGTQVTVSS
notes: as for B2
As to B12, the binding result in test [3] is “binds”.

B13: Nanobody 11B7 (VHH)
VHH: EVQLVESGGGLVQAGGSLRLSCAASGFNFDDYAIGWFRQAPGKEREGVSIISSSDGNTYYADSVKGRFTISSDNAKNTVYLQMNSLKPEDTAVYYCAAGQGWVIATMTSFRAHREYDYWGQGTQVTVSS
notes: as for B7
On to B13, for which the “inhibition” value in test [5] stood at 7.9. Besides, in test [6], the pIC50 is 9.6.

B14: Nanobody 15C8 (VHH)
VHH: EVQLVESGGGLVQAGGSLRLSCAASGRTFSSYRMGWFRQAPEKEREFVAVITRSGGSTFYSNSVKGRFTISRDNAKNTVYLQMNSLKPEDTAVYYCAAGAQMGWAEASTYDYWGQGTQVTVSS
notes: as for B6
Take B14: the binding result in [4] was “binds”.

B15: Nanobody 11D9 (VHH)
VHH: EVQLVESGGGLVQAGGSLRLSCAASGFTFDDYPIGWFRQAPGKEREGISCISSSDGSTYYADSVKGRFTISSDNAKNTVYLQMNSLKPEDTAVYYCAAGLGALVRYYSGSYYCDGMDYWGKGTLVTVSS
notes: as for B2
Regarding B15, the binding result in [3] was “binds”.

B16: Nanobody 17B11 (VHH)
VHH: EVQLVESGGGLVQAGGSLRLSCAASGFNFDDYAIGWFRQAPGKEREGVSCISSSDGSTYSADSVKGRFTISSDNAKNTVYLQMNNLNPEDTAAYYCAAAPPDCTYYPATPIYYWGQGTQVTVSS
notes: llama VHH against CCL5; purified; not shown: C-terminal c-myc tag and (His)6 tag coded by the vector
B16 returned a pIC50 with CCL5 [7] of 9.

B17: Nanobody 10A12 (VHH)
VHH: EVQLVESGGGLVQAGGSLRLSCAASGFTFDDYAIGWFRQVPGKERKGVSCISSSDGTTYYEDSVKGRFTISSDNAKNTIYLQMNSLKPEDTAVYYCAAAPPDCTYYPATPIYYWGQGTQVTVSS
notes: as for B16
As to B17, the binding result (in test [10]; with CCL5 [11]) was “binds” throughout.

B18: Nanobody 10E8 (VHH)
VHH: EVQLVESGGGLVQAGGSLRLSCAASGRTFSSYYMGWFRQAPGKEREFVARIGWSSGSTYYADSMKGRFTISRDNAKNTVYLQMNSLKPEDTAVYYCAAAPRYTLATVTYDYDYWGQGTQVTVSS
notes: as for B16
For the molecule B18, the binding result (in test [10]; with CCL5 [11]) was “binds” each time.

B19: Nanobody 11G10 (VHH)
VHH: EVQLVESGGGLVQPGGSLRLSCAASGFTLDDYAIGWFRQAPGKEREGVSSISSSDGRTYYADSVKGRFAISRDNAKNTVYLQMNSLKPEDTAVYYCAADQGVVAYDALRPYRWLEVWGQGTLVTVSS
notes: as for B2
Regarding B19, in [3], the binding result is “binds”.

B20: Nanobody 8D3 (VHH)
VHH: EVQLVESGGGLVQAGGSLRLSCAASGRTFSNYAMGWFRQAPGKEREFVAAISWSDGSTYYADSVKGRFTISRDNAKNTVYLLMNSLNPEDTAVYYCAADLLAEDPAAPSRGYDYWGQGTQVTVSS
notes: as for B6
Regarding B20, the binding result in test [8] is recorded as “binds”.

B21: Nanobody 11B1 (VHH)
VHH: EVQLVESGGGLVQAGGSLRLSCAASGFTFDDYTIGWFRQAPGKEREGVSCISSSDGSTYYADSVKGRFTISSDNVKNTVYLQMNSLKPEDTAVYYCAASLGFLTAQCMGVMSIGLSEYDYWGQGTQVTVSS
notes: as for B7
On to B21, for which, in test [5], the “inhibition” value turned out to be 7.8. Further, the pIC50 in test [6] was 9.6.
